Measurements from the supplement of paper PMC7125110.
± gives the standard error. Variants at the floor of the assay were thinned out.

B1: glmS ribozyme (parent)
chain: AUAAAAGCGCCAGAACUACAGAAAUGUAGUUGACGAGGAGGAGGUUUAUCGAAUUUUCGGCGGAUGCCUCCAAA

How the values were obtained:
Conditions in all cases: with glucosamine-6-phosphate
[1] = variants of: B1; experiment: self-cleavage kobs at 160 uM GlcN6P; higher = faster cleavage; RNA array
Method in brief: (§1)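 A hybridised Cy3 probe tracked barcoded ribozyme variants, transcribed in situ by E. coli RNA polymerase on sequenced MiSeq chips, at 37 °C. The variants received 40 μM to 10 mM glucosamine-6-phosphate in HEPES/KCl/Mg(OAc)2 buffer. kobs came from decay fits and kcat and KM from weighted Michaelis–Menten fits.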

[2] = variants of: B1; experiment: self-cleavage kobs at 2500 uM GlcN6P; higher = faster cleavage; RNA array
Method in brief: as §1

[3] = variants of: B1; experiment: self-cleavage kobs at 10000 uM GlcN6P; higher = faster cleavage; RNA array
Method in brief: as §1

[4] = variants of: B1; experiment: self-cleavage kobs at 640 uM GlcN6P; higher = faster cleavage; RNA array
Method in brief: as §1

| Variant | self-cleavage kobs at 160 uM GlcN6P [1] [s⁻¹] | self-cleavage kobs at 2500 uM GlcN6P [2] [s⁻¹] | self-cleavage kobs at 10000 uM GlcN6P [3] [s⁻¹] | self-cleavage kobs at 640 uM GlcN6P [4] [s⁻¹] |
| --- | --- | --- | --- | --- |
| AUAAAAUCGCCAGAACUACAGAAAUGUAGUUGACGAGGAGUAGGUUUAUCGAGUUUUCGGCGGAUGCCUCCAAA [G7U G41U A53G] | < 1e-05 | < 1e-05 | – | – |
| AUAAAAGAGCCAGAACUACAGAAAUGUAGUUGUCGAGGAGGAGGUUUAUCGAAUUUUCGGCGGAUGCCUCCAAA [C8A A33U] | < 1e-05 | < 1e-05 | < 1e-05 | – |
| AUAAAAUCGCCAUAUCUACAGAAAUGUAGUUGACGAGGACAAGGUUUAUCGUAUUUUCGGCGGAUGCCUCCAAA [G7U G13U A15U G40C G41A A52U] | < 1e-05 | < 1e-05 | – | < 1e-05 |
| AUAAAAGUGCCAGAACUACAGAAAUGUAGUUGACGAGGCGGAGGUUUAUGGAAUUUUCGGGGGAUGCCUCCAAA [C8U A39C C50G C61G] | < 1e-05 | < 1e-05 | – | < 1e-05 |
| AUAAAAUCGCCAGAACUACAGAAAUGUAGCUAACGAGGAGGAGGUUUAUCGAAUUUUCGGCGGAUGCCUCCAAA [G7U U30C G32A] | < 1e-05 | – | < 1e-05 | – |
| AUAAAAUCGACAGAACUACAGAAAUGUACUUGACGAGGAGGAGGUUUAUCGAAUUUCCGGCGGAUGCCUCCAAA [G7U C10A G29C U57C] | < 1e-05 | < 1e-05 | – | < 1e-05 |
| AUAAAAGGGCCAGAACUACAGAAAUGUAGUUGACGAGGAGGAGAUUUAUCGAAUUUUCGGCGGAUGCCUCCAAA [C8G G44A] | < 1e-05 | < 1e-05 | < 1e-05 | < 1e-05 |
| AUAAAAGGGCCAGAACUACAGAAAUGUAGUUGACGAGGAGGAGCUUUAUCGAAUUUUCGGCGGAUGCCUCCAAA [C8G G44C] | < 1e-05 | < 1e-05 | < 1e-05 | < 1e-05 |
| AUAAAAGGGCCAGAACUACAGAAAUGUAGUUGAGGAGGAGGAGGUUUAUCGGAUUUUCGGCGGAUGCCUCCAAA [C8G C34G A52G] | < 1e-05 | – | – | < 1e-05 |
| AUAAAAGAGCCAGAACUACAGAAAUGUACUUCACGAGGAGGAGGUUUAUCGAAUUUUCGGCGGAUGCCUCCAAA [C8A G29C G32C] | < 1e-05 | – | – | – |
| AUAAAAGGGCCAGAACUACAGAAAUGUAGUUUACGAGGAGGAGGUUUAUCGAAUUUUUGGCGGAUGCCUCCAAA [C8G G32U C58U] | < 1e-05 | – | – | < 1e-05 |
| AUAAAAUCGCCAGAACUACAGAAAUGUAGUUGACGAGGAGGAGGUUUAUCGAAUUUUCGGCGGAUGACUCCAAA [G7U C67A] | < 1e-05 | – | – | < 1e-05 |
| AUAAAAGAGCCAUAACUACAGAAAUGUAGUUGACGAGGAGGAGGUUUAUCGAAUUUUCGGCGGAUGCCUCCAAA [C8A G13U] | < 1e-05 | < 1e-05 | < 1e-05 | < 1e-05 |
| AUAAAAGAGCCAGAACUACAGAAAUGUAGUUGACGAGGAGGAGGUUUAUUGAAUCUUCGGCGGAUGCCUCCAAA [C8A C50U U55C] | < 1e-05 | – | – | < 1e-05 |
| AUAAAAGGGCAAGAACUACAGAAAUGUAGUUGACGAGGAGGAGGUUUAUCGAAUUUUCGGCGGAUGCCUCCAAA [C8G C11A] | < 1e-05 | < 1e-05 | < 1e-05 | < 1e-05 |
| AUAAAAGAGCCAGAACUACAGAAAUGUAGUUGUCGAGGAGGAGGUUUAUCGAAUUUUCGGCGGGUGUCUCGAAA [C8A A33U A64G C67U C71G] | < 1e-05 | – | – | – |

| Variant | self-cleavage kobs at 160 uM GlcN6P [1] [s⁻¹] | self-cleavage kobs at 2500 uM GlcN6P [2] [s⁻¹] | self-cleavage kobs at 10000 uM GlcN6P [3] [s⁻¹] | self-cleavage kobs at 640 uM GlcN6P [4] [s⁻¹] |
| --- | --- | --- | --- | --- |
| AUAAAAGGGCCAGAACUACAGAAAUGUAGUUGACGAGGAGGAGGUCUAUCGAAUUUUCGGCGGAUGCCUCCAAA [C8G U46C] | < 1e-05 | < 1e-05 | < 1e-05 | < 1e-05 |
| AUAAAAGGGCCAGAACUACAGAAAUGUAGUUGACGAGGACGAGGUUUACCGAAUUUUCGGAGGAUGCCUCCAAA [C8G G40C U49C C61A] | < 1e-05 | < 1e-05 | – | < 1e-05 |
| AUAAAAGAGCCAGUACUACAGAAAUGUAGUUGACGAGGAGGAGGUUUAUCGAAUUUUCGGCGGAUGCCUCCAAA [C8A A14U] | < 1e-05 | < 1e-05 | – | < 1e-05 |
| AUAAAAGUGCCAGAACUACAGAAAUGUAGUUGACGAGGAGGAGGUUUAUCGGAUUUUCGGCGGAUGCCUCCAAA [C8U A52G] | < 1e-05 | < 1e-05 | < 1e-05 | < 1e-05 |
| AUAAAAGGGCCAGAACUACAGAAAUGUAGUUGACGAGAAGGAGGUUUAUCGAAUUUUGGGCGGAUGGCUCCAAA [C8G G38A C58G C67G] | 0.000186 ± 5e-05 | 0.000435 ± 0.00014 | – | 0.000538 ± 0.00013 |
| AUAAAAGUGCUAGAAGUACAGAAAUGUAGUUGACGAGGAGGAGGUUUAUCGAAUGUUCGGCGGAUGCCUCCAAA [C8U C11U C16G U55G] | < 1e-05 | – | – | < 1e-05 |
| AUAAAAGGGCCAGAACUACAGAAAUGUAGUUGCCGAGGAGGAGGUUUCUCGAAUUUUCGGCGGAUGCCGCCAAA [C8G A33C A48C U69G] | < 1e-05 | < 1e-05 | – | – |
| AUAAAAGAGCCAGAACUACAGAAAUGUAGUUGAUGAGGAUUAGGAUUAUCGAAUUUUCGGCUGAUGCCUCCAAA [C8A C34U G40U G41U U45A G62U] | < 1e-05 | – | – | – |
| AUAAAAGGGCCAGAAUUACAGAAAUGUAGUUGAUGAGGAGGAGGUUUAUCGAAUUUUCGGCGGAGGCCUCCAAA [C8G C16U C34U U65G] | < 1e-05 | – | – | – |
| AUAAAAGAGCCAGAACUACAGAAAUGUAGUUGACGAGGAGGAGGUUUAUCGAAUUUUCGGCGGAUGCCUGCAAA [C8A C70G] | < 1e-05 | – | – | – |
| AUAAAAUCACCAGAAUUACAGAAAUGUAAUUGACGAGGAGGAGGUUUAUCGAUUUUUCAGCGGAUACCGCCAAA [G7U G9A C16U G29A A53U G59A G66A U69G] | < 1e-05 | – | – | < 1e-05 |
| AUAAAAGGGCCAGAACUACAGAAAUGUAGUUGACGAGGAGGUGGUUUAUCGAAUUUUUGGCGGAUGCCUCCAAA [C8G A42U C58U] | < 1e-05 | < 1e-05 | – | – |
| AUAAAAGGGCGAGAAGUACAGAAAUGUAGUUGAAGAGGAGGAGGUUUAUCGAAUUUUCGGCGGAUGCCUCCAAA [C8G C11G C16G C34A] | < 1e-05 | < 1e-05 | – | – |
| AUAAAAGAGCCAGAUCUACAGAAAUGUAGUUGACGAGGAGGAGGUUCAUCGAAUAUUCGGCGCAGGCCUCCAAA [C8A A15U U47C U55A G63C U65G] | < 1e-05 | – | – | – |
| AUAAAAGGGCCAGAACUACAGAAAUGUAGUUGACGAGGAGGAGGUUUAUCGAAUUUUCGGAGGAUGCUUCCAAA [C8G C61A C68U] | < 1e-05 | – | – | – |
